Experimental data taken from article PMC12533369, “Citrullination of AKT2 Catalyzed by PAD1 Facilitates the Maintenance of Stemness Characteristics of Ovarian Cancer Stem‐Like Cells in Ovarian Cancer” (Advanced Science, 2025).
Values belong to the binder of their own block, whether it stands above or below them.

Biological target: T1, GST-tagged PAD1 (human, UniProt Q9ULC6 1-663)
T1 construct: peptidylarginine deiminase 1 (PAD1), recombinant human; also called GST-PAD1; recombinant human PAD1; source: recombinant
T1 sequence (looked up): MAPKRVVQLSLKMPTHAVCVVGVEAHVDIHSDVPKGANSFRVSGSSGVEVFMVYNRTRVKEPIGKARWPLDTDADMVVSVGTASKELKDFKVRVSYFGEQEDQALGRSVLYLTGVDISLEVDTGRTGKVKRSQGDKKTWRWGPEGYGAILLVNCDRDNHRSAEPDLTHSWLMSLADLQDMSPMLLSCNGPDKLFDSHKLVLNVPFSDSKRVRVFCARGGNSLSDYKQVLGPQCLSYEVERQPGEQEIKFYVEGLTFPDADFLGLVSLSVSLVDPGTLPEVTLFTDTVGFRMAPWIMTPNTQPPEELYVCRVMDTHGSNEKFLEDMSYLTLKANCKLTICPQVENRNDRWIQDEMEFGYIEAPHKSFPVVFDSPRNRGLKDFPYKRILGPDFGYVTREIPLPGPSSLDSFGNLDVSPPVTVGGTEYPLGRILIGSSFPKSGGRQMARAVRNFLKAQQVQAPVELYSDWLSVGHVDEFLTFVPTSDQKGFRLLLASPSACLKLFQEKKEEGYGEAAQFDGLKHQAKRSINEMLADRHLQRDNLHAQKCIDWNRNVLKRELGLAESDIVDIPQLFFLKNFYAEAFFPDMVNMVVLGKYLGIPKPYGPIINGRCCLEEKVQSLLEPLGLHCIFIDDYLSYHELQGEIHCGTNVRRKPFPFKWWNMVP
Assay: pull-down; GST pull-down: purified His-tagged AKT2 (full length or truncated) incubated with GST-tagged PAD1 or GST alone
Settings: both partners purified

binding result: binds
B1: His-AKT2 (kinase domain) (domain or fragment, UniProt P31751 152-481, looked up)
chain: FDYLKLLGKGTFGKVILVREKATGRYYAMKILRKEVIIAKDEVAHTVTESRVLQNTRHPFLTALKYAFQTHDRLCFVMEYANGGELFFHLSRERVFTEERARFYGAEIVSALEYLHSRDVVYRDIKLENLMLDKDGHIKITDFGLCKEGISDGATMKTFCGTPEYLAPEVLEDNDYGRAVDWWGLGVVMYEMMCGRLPFYNQDHERLFELILMEEIRFPRTLSPEAKSLLAGLLKKDPKQRLGGGPSDAKEVMEHRFFLSINWQDVVQKKLLPPFKPQVTSEVDTRYFDDEFTAQSITITPPDRYDSLGLLELDQRTHFPQFSYSASIRE
notes: AKT2 residues 152-481, the truncated variant that the text calls the kinase domain; also called His-tagged AKT2 (152–481 aa); source: purified

binding result: binds
B2: His-tagged full-length AKT2 (enzyme, UniProt P31751 1-481, looked up)
chain: MNEVSVIKEGWLHKRGEYIKTWRPRYFLLKSDGSFIGYKERPEAPDQTLPPLNNFSVAECQLMKTERPRPNTFVIRCLQWTTVIERTFHVDSPDEREEWMRAIQMVANSLKQRAPGEDPMDYKCGSPSDSSTTEEMEVAVSKARAKVTMNDFDYLKLLGKGTFGKVILVREKATGRYYAMKILRKEVIIAKDEVAHTVTESRVLQNTRHPFLTALKYAFQTHDRLCFVMEYANGGELFFHLSRERVFTEERARFYGAEIVSALEYLHSRDVVYRDIKLENLMLDKDGHIKITDFGLCKEGISDGATMKTFCGTPEYLAPEVLEDNDYGRAVDWWGLGVVMYEMMCGRLPFYNQDHERLFELILMEEIRFPRTLSPEAKSLLAGLLKKDPKQRLGGGPSDAKEVMEHRFFLSINWQDVVQKKLLPPFKPQVTSEVDTRYFDDEFTAQSITITPPDRYDSLGLLELDQRTHFPQFSYSASIRE
notes: AKT2, full length; whether 'human' also covers AKT2 is not clear; also called His-AKT2 (full length); source: purified
